The text below walks through data of PMC4520770 (Journal of molecular biology, 2015).

In general, Kd refers to the concentration at which binding is half-saturated. A lower Kd goes with higher affinity.

5/6‑FAM = 5/6-fluorescein amidite

The experiment addresses KSBcl-2 (Kaposi's sarcoma-associated herpesvirus Bcl-2 homolog), c-myc-tagged (Kaposi's sarcoma-associated herpesvirus …, UniProt P90504 1-175). Kind of experiment: fluorescence polarisation. In general terms: Polarisation of emitted light reports the rotation of a fluorescent probe.

In turn, {5/6‑FAM}-RPIIWIGQEISRVGDRENAYKAR-NH2 [BL6-22_Y4eK] returned a Kd of 750 nM.
Regarding {5/6‑FAM}-RPIIWIGQEISRVGDRENAYYAR-NH2 [BL6-22], binding was put at a Kd of 1100 nM.
The result for {5/6‑FAM}-RPNIWLTQRLQRTGDGLNAYYAR-NH2 [KScomp] reads 13 nM; that for {5/6‑FAM}-RPQIWIHQGLQRLGDGLNAYYAR-NH2 [KL6-7], 1.6 nM.
Molecule {5/6‑FAM}-RPQIWIHQGLQRLGAGLNAYYAR-NH2 [KL6-7_D3fA] showed a Kd of 180 nM.
For {5/6‑FAM}-RPQIWIHQGLQRLGDGLNAYKAR-NH2 [KL6-7_Y4eK], the Kd stood at 2.9 nM.
